Assay results as given in patent publication US20220306695A1, “COMPSTATIN ANALOGUES AND THEIR MEDICAL USES” (priority 2019, published 2022).
Starred links: 1 amine or outer side, 2 acyl side, 3 side chain; linkers in the order of their positions; H or OH if unused. Positions of bridges follow the written chain, without caps; N, C: chain ends. Non-standard residues stand in square brackets, D forms with d. Groups on a side chain read outwards from the residue. *: point of attachment. Trp(1-Me) = Cn1cc(C[C@H](N)C(=O)O)c2ccccc21; C18 diacid = O=C(O)CCCCCCCCCCCCCCCCC(=O)*; C16 diacid = O=C(O)CCCCCCCCCCCCCCC(=O)*; γGlu = O=C(O)[C@H](CCC(=O)[*:2])N[*:1]; hCys = N[C@@H](CCS)C(=O)O; AEEA = NCCOCCOCC(=O)O; Sar = CNCC(=O)O

Target: Human C3 (human, UniProt P01024 23-1663)
Sequence (P01024 23-1663 limits assumed): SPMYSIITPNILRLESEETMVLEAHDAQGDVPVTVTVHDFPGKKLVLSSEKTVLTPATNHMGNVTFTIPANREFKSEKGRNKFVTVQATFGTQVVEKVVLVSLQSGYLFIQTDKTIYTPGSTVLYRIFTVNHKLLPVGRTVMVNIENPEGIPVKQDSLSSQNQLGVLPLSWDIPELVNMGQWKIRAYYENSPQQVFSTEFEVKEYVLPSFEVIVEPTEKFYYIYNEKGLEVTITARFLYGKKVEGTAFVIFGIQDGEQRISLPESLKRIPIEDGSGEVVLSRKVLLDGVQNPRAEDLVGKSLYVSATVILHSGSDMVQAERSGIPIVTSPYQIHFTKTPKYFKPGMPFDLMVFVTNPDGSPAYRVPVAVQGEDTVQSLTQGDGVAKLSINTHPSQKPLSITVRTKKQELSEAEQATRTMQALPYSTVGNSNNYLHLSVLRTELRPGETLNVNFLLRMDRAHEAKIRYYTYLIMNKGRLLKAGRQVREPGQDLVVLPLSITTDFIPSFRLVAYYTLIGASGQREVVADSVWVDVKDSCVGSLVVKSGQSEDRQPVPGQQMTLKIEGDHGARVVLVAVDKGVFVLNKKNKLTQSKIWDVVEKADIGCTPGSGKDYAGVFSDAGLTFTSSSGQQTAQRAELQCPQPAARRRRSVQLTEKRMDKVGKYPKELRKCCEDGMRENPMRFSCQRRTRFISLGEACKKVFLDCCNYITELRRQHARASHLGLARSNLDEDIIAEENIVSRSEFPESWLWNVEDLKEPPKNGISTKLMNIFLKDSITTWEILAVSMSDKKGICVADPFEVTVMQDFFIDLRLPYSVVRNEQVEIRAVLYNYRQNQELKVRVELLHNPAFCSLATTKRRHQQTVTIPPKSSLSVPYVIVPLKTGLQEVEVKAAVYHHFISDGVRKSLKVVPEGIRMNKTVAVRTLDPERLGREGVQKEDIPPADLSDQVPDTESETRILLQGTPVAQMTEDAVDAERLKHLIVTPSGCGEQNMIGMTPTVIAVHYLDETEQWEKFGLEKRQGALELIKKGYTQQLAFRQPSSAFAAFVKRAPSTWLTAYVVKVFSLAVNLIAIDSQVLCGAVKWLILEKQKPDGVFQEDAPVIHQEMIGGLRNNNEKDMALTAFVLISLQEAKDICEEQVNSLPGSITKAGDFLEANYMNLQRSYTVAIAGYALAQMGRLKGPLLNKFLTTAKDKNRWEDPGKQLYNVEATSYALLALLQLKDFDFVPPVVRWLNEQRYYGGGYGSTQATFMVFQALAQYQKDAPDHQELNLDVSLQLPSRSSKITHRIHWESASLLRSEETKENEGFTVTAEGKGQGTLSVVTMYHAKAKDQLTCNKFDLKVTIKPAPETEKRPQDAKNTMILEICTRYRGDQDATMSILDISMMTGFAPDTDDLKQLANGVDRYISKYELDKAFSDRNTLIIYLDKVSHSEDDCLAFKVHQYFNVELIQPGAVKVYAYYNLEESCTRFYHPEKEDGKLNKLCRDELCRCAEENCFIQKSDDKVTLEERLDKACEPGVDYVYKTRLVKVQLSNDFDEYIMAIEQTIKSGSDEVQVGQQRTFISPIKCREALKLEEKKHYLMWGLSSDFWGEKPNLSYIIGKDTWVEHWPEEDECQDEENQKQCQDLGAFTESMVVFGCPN
Experiment: cell-based or functional assay

B1: Compound 40 (peptide)
peptide: Ac-GSAICIWQDWGEHRC[Sar]E-NH2
modifications: disulfide 5-15
SMILES: CC[C@H](C)[C@H](NC(=O)[C@H](C)NC(=O)[C@H](CO)NC(=O)CNC(C)=O)C(=O)N[C@H]1CSSC[C@@H](C(=O)N(C)CC(=O)N[C@@H](CCC(=O)O)C(N)=O)NC(=O)[C@H](CCCNC(=N)N)NC(=O)[C@H](Cc2c[nH]cn2)NC(=O)[C@H](CCC(=O)O)NC(=O)CNC(=O)[C@H](Cc2c[nH]c3ccccc23)NC(=O)[C@H](CC(=O)O)NC(=O)[C@H](CCC(N)=O)NC(=O)[C@H](Cc2c[nH]c3ccccc23)NC(=O)[C@H]([C@@H](C)CC)NC1=O
- IC50[nM], inhibition of hemolysis: < 250 nM

B2: Ac-IC(1)X…(1)T-NH2 with Leucine at position 3 (peptide)
peptide: Ac-ICLWQDWGEHRCT-NH2
modifications: disulfide 2-12
SMILES: CC[C@H](C)[C@H](NC(C)=O)C(=O)N[C@H]1CSSC[C@@H](C(=O)N[C@H](C(N)=O)[C@@H](C)O)NC(=O)[C@H](CCCNC(=N)N)NC(=O)[C@H](Cc2c[nH]cn2)NC(=O)[C@H](CCC(=O)O)NC(=O)CNC(=O)[C@H](Cc2c[nH]c3ccccc23)NC(=O)[C@H](CC(=O)O)NC(=O)[C@H](CCC(N)=O)NC(=O)[C@H](Cc2c[nH]c3ccccc23)NC(=O)[C@H](CC(C)C)NC1=O
- IC50, CP hemolysis: 500 nM

Binder: Ac-SEFAI[Trp(1-Me)]QDWGEHR[hCys]TEGE[AEEA]ESK([γGlu-C18 diacid])-OH (thioether 4-14) [Compound 163]
- IC50[nM], inhibition of hemolysis: < 100 nM

Binder: Ac-SEFAI[Trp(1-Me)]QDWGEHR[hCys][Sar]EGE[AEEA][AEEA]K([γGlu-Gly-γGlu-C16 diacid])-NH2 (thioether 4-14) [Compound 160]
- IC50[nM], inhibition of hemolysis: < 100 nM

Binder: Ac-SEFAI[Trp(1-Me)]QDW[Sar]EHR[hCys][Sar]E[AEEA][AEEA]K([γGlu-Gly-γGlu-C18 diacid])-OH (thioether 4-14) [Compound 162]
- IC50[nM], inhibition of hemolysis: < 100 nM

B3: Compound 11 (peptide)
peptide: Ac-[Sar]CIWQDWGEHRCT-NH2
modifications: disulfide 2-12
SMILES: CC[C@H](C)[C@@H]1NC(=O)[C@@H](NC(=O)CN(C)C(C)=O)CSSC[C@@H](C(=O)N[C@H](C(N)=O)[C@@H](C)O)NC(=O)[C@H](CCCNC(=N)N)NC(=O)[C@H](Cc2c[nH]cn2)NC(=O)[C@H](CCC(=O)O)NC(=O)CNC(=O)[C@H](Cc2c[nH]c3ccccc23)NC(=O)[C@H](CC(=O)O)NC(=O)[C@H](CCC(N)=O)NC(=O)[C@H](Cc2c[nH]c3ccccc23)NC1=O
- IC50[nM], inhibition of hemolysis: < 100 nM

B4: Compound 41 (peptide)
peptide: Ac-SAICIWQDWGEHRC[Sar]E-NH2
modifications: disulfide 4-14
SMILES: CC[C@H](C)[C@H](NC(=O)[C@H](C)NC(=O)[C@H](CO)NC(C)=O)C(=O)N[C@H]1CSSC[C@@H](C(=O)N(C)CC(=O)N[C@@H](CCC(=O)O)C(N)=O)NC(=O)[C@H](CCCNC(=N)N)NC(=O)[C@H](Cc2c[nH]cn2)NC(=O)[C@H](CCC(=O)O)NC(=O)CNC(=O)[C@H](Cc2c[nH]c3ccccc23)NC(=O)[C@H](CC(=O)O)NC(=O)[C@H](CCC(N)=O)NC(=O)[C@H](Cc2c[nH]c3ccccc23)NC(=O)[C@H]([C@@H](C)CC)NC1=O
- IC50[nM], inhibition of hemolysis: < 250 nM

B5: Compound 159 (peptide)
peptide: EGSAYAIWQDWGEHRCGEKEK
modifications: not fully specified; N-acetyl; C-terminal amide; delta-cystathionine (Ctt2) thioether bridge A6-hCys16 (hCys written C); W8 is 1-Me-Trp; G17 is Sar; E20 is γGlu; K21 side chain bears [17-carboxy-heptadecanoyl][γGlu][Peg3][Peg3]
- IC50[nM], inhibition of hemolysis: < 100 nM

B6: Compound 44 (peptide)
peptide: Ac-EGSAICIWQDWGEHRC[Sar]EGE-NH2
modifications: disulfide 6-16
SMILES: CC[C@H](C)[C@H](NC(=O)[C@H](C)NC(=O)[C@H](CO)NC(=O)CNC(=O)[C@H](CCC(=O)O)NC(C)=O)C(=O)N[C@H]1CSSC[C@@H](C(=O)N(C)CC(=O)N[C@@H](CCC(=O)O)C(=O)NCC(=O)N[C@@H](CCC(=O)O)C(N)=O)NC(=O)[C@H](CCCNC(=N)N)NC(=O)[C@H](Cc2c[nH]cn2)NC(=O)[C@H](CCC(=O)O)NC(=O)CNC(=O)[C@H](Cc2c[nH]c3ccccc23)NC(=O)[C@H](CC(=O)O)NC(=O)[C@H](CCC(N)=O)NC(=O)[C@H](Cc2c[nH]c3ccccc23)NC(=O)[C@H]([C@@H](C)CC)NC1=O
- IC50[nM], inhibition of hemolysis: < 250 nM

B7: Compound 156 (peptide)
peptide: Ac-SEFAI[Trp(1-Me)]QDWGEHR[hCys]TEGE[AEEA][AEEA]K([γGlu-Gly-γGlu-C18 diacid])-NH2
modifications: thioether 4-14
SMILES: CC[C@H](C)[C@@H]1NC(=O)[C@@H](NC(=O)[C@H](Cc2ccccc2)NC(=O)[C@H](CCC(=O)O)NC(=O)[C@H](CO)NC(C)=O)CSCC[C@@H](C(=O)N[C@H](C(=O)N[C@@H](CCC(=O)O)C(=O)NCC(=O)N[C@@H](CCC(=O)O)C(=O)NCCOCCOCC(=O)NCCOCCOCC(=O)N[C@@H](CCCCNC(=O)CC[C@H](NC(=O)CNC(=O)CC[C@H](NC(=O)CCCCCCCCCCCCCCCCC(=O)O)C(=O)O)C(=O)O)C(N)=O)[C@@H](C)O)NC(=O)[C@H](CCCNC(=N)N)NC(=O)[C@H](Cc2c[nH]cn2)NC(=O)[C@H](CCC(=O)O)NC(=O)CNC(=O)[C@H](Cc2c[nH]c3ccccc23)NC(=O)[C@H](CC(=O)O)NC(=O)[C@H](CCC(N)=O)NC(=O)[C@H](Cc2cn(C)c3ccccc23)NC1=O
- IC50[nM], inhibition of hemolysis: < 100 nM

B8: Ac-IC(1)X…(1)T-NH2 with Phenylalanine at position 3 (peptide)
peptide: Ac-ICFWQDWGEHRCT-NH2
modifications: disulfide 2-12
SMILES: CC[C@H](C)[C@H](NC(C)=O)C(=O)N[C@H]1CSSC[C@@H](C(=O)N[C@H](C(N)=O)[C@@H](C)O)NC(=O)[C@H](CCCNC(=N)N)NC(=O)[C@H](Cc2c[nH]cn2)NC(=O)[C@H](CCC(=O)O)NC(=O)CNC(=O)[C@H](Cc2c[nH]c3ccccc23)NC(=O)[C@H](CC(=O)O)NC(=O)[C@H](CCC(N)=O)NC(=O)[C@H](Cc2c[nH]c3ccccc23)NC(=O)[C@H](Cc2ccccc2)NC1=O
- IC50, CP hemolysis: > 10000 nM

B9: Compound 158 (peptide)
peptide: Ac-EFAI[Trp(1-Me)]QEWGEHR[hCys][Sar]EA[AEEA][AEEA]K([γGlu-Gly-γGlu-C18 diacid])-NH2
modifications: thioether 3-13
SMILES: CC[C@H](C)[C@@H]1NC(=O)[C@@H](NC(=O)[C@H](Cc2ccccc2)NC(=O)[C@H](CCC(=O)O)NC(C)=O)CSCC[C@@H](C(=O)N(C)CC(=O)N[C@@H](CCC(=O)O)C(=O)N[C@@H](C)C(=O)NCCOCCOCC(=O)NCCOCCOCC(=O)N[C@@H](CCCCNC(=O)CC[C@H](NC(=O)CNC(=O)CC[C@H](NC(=O)CCCCCCCCCCCCCCCCC(=O)O)C(=O)O)C(=O)O)C(N)=O)NC(=O)[C@H](CCCNC(=N)N)NC(=O)[C@H](Cc2c[nH]cn2)NC(=O)[C@H](CCC(=O)O)NC(=O)CNC(=O)[C@H](Cc2c[nH]c3ccccc23)NC(=O)[C@H](CCC(=O)O)NC(=O)[C@H](CCC(N)=O)NC(=O)[C@H](Cc2cn(C)c3ccccc23)NC1=O
- IC50[nM], inhibition of hemolysis: < 250 nM
